Assay results from PMC5887453 (Nucleic Acids Research, 2018).

Target: T1, Pyrococcus horikoshii elongation factor 2 (PhoEF-2), wild type (Pyrococcus horikoshii, UniProt O59521 1-732)
T1 sequence (looked up): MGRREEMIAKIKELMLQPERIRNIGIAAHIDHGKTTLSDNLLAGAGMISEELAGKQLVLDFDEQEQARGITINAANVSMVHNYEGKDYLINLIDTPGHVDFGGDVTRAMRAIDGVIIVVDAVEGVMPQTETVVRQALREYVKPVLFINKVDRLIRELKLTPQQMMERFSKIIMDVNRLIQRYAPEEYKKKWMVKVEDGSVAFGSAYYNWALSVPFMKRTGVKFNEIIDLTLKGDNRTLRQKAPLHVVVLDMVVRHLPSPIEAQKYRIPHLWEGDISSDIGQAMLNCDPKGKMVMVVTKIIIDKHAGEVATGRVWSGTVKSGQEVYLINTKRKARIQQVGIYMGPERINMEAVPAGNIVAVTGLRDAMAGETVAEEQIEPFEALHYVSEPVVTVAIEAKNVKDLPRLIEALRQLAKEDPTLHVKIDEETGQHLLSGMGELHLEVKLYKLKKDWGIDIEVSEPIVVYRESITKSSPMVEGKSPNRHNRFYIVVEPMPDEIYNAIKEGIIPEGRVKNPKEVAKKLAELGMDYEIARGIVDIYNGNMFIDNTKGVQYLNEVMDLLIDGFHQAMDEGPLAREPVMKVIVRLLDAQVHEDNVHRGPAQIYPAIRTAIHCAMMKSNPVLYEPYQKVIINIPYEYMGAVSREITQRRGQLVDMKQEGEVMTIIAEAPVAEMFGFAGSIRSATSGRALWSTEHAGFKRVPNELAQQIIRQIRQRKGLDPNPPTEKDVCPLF
Assay: crystal structure

EALAGLSALFG [P1C11, peptide of the 11 C-terminal amino acids of P. horikoshii P1 (E98-G108)]: binds.
